Laboratory results reported in PMC11067741, “Crystal structure of human peptidylarginine deiminase type VI (PAD6) provides insights into its inactivity” (IUCrJ, 2024).

Molecular target: the molecule itself
Assay: SEC; analytical SEC on Superdex 200 increase 5/150GL, 20 mM Tris-HCl pH 7.5, 200 mM NaCl, 1 mM TCEP; PAD6 at 1 mg/ml, 0.3 ml/min; calibrated with protein standards

B1: recombinant human peptidylarginine deiminase type VI (PAD6) V2-P694 S10E S446E (enzyme, UniProt Q6TGC4 2-694, looked up)
chain: VSVEGRAMEFQSIIHLSLDSPVHAVCVLGTEICLDLSGCAPQKCQCFTIHGSGRVLIDVANTVISEKEDATIWWPLSDPTYATVKMTSPSPSVDADKVSVTYYGPNEDAPVGTAVLYLTGIEVSLEVDIYRNGQVEMSSDKQAKKKWIWGPSGWGAILLVNCNPADVGQQLEDKKTKKVIFSEEITNLSQMTLNVQGPSCILKKYRLVLHTSKEESKKARVYWPQKDNSSTFELVLGPDQHAYTLALLGNHLKETFYVEAIAFPSAEFSGLISYSVSLVEESQDPSIPETVLYKDTVVFRVAPCVFIPCTQVPLEVYLCRELQLQGFVDTVTKLSEKSNSQVASVYEDPNRLGRWLQDEMAFCYTQAPHKTTSLILDTPQAADLDEFPMKYSLSPGIGYMIQDTEDHKVASMDSIGNLMVSPPVKVQGKEYPLGRVLIGSSFYPEAEGRAMSKTLRDFLYAQQVQAPVELYSDWLMTGHVDEFMCFIPTDDKNEGKKGFLLLLASPSACYKLFREKQKEGYGDALLFDELRADQLLSNGREAKTIDQLLADESLKKQNEYVEKCIHLNRDILKTELGLVEQDIIEIPQLFCLEKLTNIPSDQQPKRSFARPYFPDLLRMIVMGKNLGIPKPFGPQIKGTCCLEEKICCLLEPLGFKCTFINDFDCYLTEVGDICACANIRRVPFAFKWWKMVP
notes: human peptidylarginine deiminase type VI (PAD6), residues V2-P694, called a full-length construct, with the phosphomimetic mutations S10E and S446E; also called phosphomimetic PAD6; human PAD6 phosphomimic mutant; source: HEK cells, transient transfection, purified (glutathione Sepharose, TEV cleavage, reverse HisTrap, Superdex 200); not shown: His6, N-terminal, cleaved; GST, N-terminal, cleaved
stoichiometry N: 2
